Here are results for 7 substances from publication PMC4906247.

In experiment [1] the target is hDAPK2 CD + ARD BL mutant (Arg47, Arg50, Arg53, Arg54 to glutamate) (human). The experiment in a line: SAXS; EMBL P12 (PETRA-III), 2.0-15.0 mg/ml, 283 K; monomer/dimer equilibrium mixture fitted (OLIGOMER).
Experiment [2] has as its target calcium/calmodulin on Sepharose 4B (Sepharose 4B-CaM) (UniProt P0DP23). Briefly: pull-down; CaM pull-down of purified hDAPK2 variants, SDS-PAGE with Coomassie blue staining, three repetitions.
The target of experiment [3] is CrAsH-tagged calmodulin, calcium-bound (Ca^2+/CrAsH-CaM) (UniProt P0DP23). The experiment in a line: fluorescence polarisation; fluorescence anisotropy, purified hDAPK2 CD + ARD variants titrated against Ca2+/CrAsH-CaM; KD estimated by non-linear regression, one-site specific binding (Prism), three experiments.
Experiment [4] concerns the target hDAPK2 CD + ARD W305D, BiFC construct (human). Briefly: split reporter (BiFC, NanoBiT); bimolecular fluorescence complementation in HEK293T cells, readout normalized to protein expression; endogenous Ca2+/CaM present.
For experiment [5], the target named is calcium/calmodulin on Sepharose 4B (Sepharose 4B-CaM) (UniProt P0DP23). The experiment in a line: pull-down; CaM pull-down of hDAPK2 variants from transfected HEK293T cells on Sepharose 4B-CaM, EGTA-mediated elution, western blot, three replicates. In general terms: In western blotting, separated proteins are transferred to a membrane and probed.

Regarding “hDAPK2 CD + ARD BL mutant (Arg47, Arg50, Arg53, Arg54 to glutamate) (domain or fragment)”, the percent monomer in experiment [1] is 89%. Moreover, in experiment [2], the percent of the Ca2+/CaM binding of WT was 46 % of WT.

“hDAPK2 CD + ARD S308A, D220K (domain or fragment)”: the Kd in experiment [3] was less than 3.5 nM.

As to “hDAPK2 CD + ARD S308A, L226R (domain or fragment)”, the dissociation constant Kd in experiment [3] was less than 3.5 nM.

Regarding “hDAPK2 CD + ARD W305D, BiFC construct (domain or fragment)”, the fold increase of the BiFC signal in experiment [4] is greater than 5 fold.

As to “hDAPK2 CD + ARD W305D, D220K (domain or fragment)”, the Kd in experiment [3] was 9700 nM.

“hDAPK2 CD + ARD W305D, L226R (domain or fragment)”: the Kd in experiment [3] was 2700 nM.

Turning to “hDAPK2 W305D D220K mutant expressed in HEK293T cells (CaM pull-down from lysate) (natural protein)”, the fold increase of Ca2+/CaM binding against hDAPK2 W305D in experiment [5] was found to be 2 fold.

A word on the Kd: it is the constant that tells how readily two partners part at equilibrium.
